One may read the stoichiometry N as the number of molecules, sites or subunits per partner or assembly.

In test [1] the target is HIV-1 gp41^27–194 (HIV-1 (HXB2)). The test is described as follows: AUC.
Test [2] deals with gp41^27–154 (HIV ectodomain) (HIV-1). The experiment in a line: AUC.

Consider HIV-1 gp41^27–194 (domain or fragment), for which, in test [1], the stoichiometry N worked out at 3.

Consider “gp41^27–154 (HIV ectodomain) (domain or fragment)”, for which the stoichiometry N in test [2] is 3.
